Data reported in paper PMC9418327.

Biological target: Dfd (Deformed);Exd (Extradenticle) (Drosophila melanogaster?;Drosophila melanogaster?) (UniProt P07548+P40427)
Experiment: EMSA
Conditions: class 2 site printed as 9.1 mM in same passage; assay source not fully shown; 20 mM HEPES pH 7.9, 1.4 mM MgCl2, 1 mM ZnSO4, 40 mM KCl, 0.1 mM EGTA, 5% glycerol, 10 mM DTT, 0.1% NP40, 200 ng poly(dI-dC), 3 ug BSA, 2 pmol Cy5 dsDNA in …

Sequence of Dfd (Deformed);Exd (Extradenticle) (Drosophila melanogaster?;Drosophila melanogaster?) (P07548 whole entry, chain 1 of 2): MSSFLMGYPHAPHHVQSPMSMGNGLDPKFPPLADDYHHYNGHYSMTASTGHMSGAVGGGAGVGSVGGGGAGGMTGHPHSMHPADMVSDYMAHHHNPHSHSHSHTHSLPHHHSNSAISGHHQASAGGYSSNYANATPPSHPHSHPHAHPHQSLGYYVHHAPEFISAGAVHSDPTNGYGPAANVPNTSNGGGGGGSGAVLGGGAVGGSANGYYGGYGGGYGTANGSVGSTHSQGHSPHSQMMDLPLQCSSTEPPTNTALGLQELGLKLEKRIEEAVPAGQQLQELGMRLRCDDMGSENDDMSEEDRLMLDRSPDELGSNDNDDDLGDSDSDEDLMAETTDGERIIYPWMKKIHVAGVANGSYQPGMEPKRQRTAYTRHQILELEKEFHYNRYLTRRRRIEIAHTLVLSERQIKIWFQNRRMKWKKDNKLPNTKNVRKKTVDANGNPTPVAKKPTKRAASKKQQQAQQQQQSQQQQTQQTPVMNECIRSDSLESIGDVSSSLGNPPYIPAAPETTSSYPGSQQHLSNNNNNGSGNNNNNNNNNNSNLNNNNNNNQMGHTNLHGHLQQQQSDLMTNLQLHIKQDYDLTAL
Sequence of Dfd (Deformed);Exd (Extradenticle) (Drosophila melanogaster?;Drosophila melanogaster?) (P40427 whole entry, chain 2 of 2): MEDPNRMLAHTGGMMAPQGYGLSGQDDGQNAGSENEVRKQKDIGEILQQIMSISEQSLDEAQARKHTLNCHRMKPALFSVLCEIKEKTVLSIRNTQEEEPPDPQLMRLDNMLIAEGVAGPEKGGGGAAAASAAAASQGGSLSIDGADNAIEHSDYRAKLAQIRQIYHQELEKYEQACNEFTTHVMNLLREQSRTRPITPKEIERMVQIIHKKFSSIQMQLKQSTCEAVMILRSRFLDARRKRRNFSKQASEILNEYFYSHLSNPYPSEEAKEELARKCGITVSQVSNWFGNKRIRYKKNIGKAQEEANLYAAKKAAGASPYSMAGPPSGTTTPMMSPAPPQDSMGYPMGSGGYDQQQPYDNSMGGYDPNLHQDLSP

modC enhancer site I
Kd (mM (so in the source); probably nM)): 5.5
